We go through one molecule from doi:10.1101/2022.08.08.503151.

The assay addresses 80S ribosome (yeast) (S. cerevisiae (endogenous in TB50a)) (UniProt P14126). Briefly: co-sedimentation.
Sequence of UniProt P14126 (P14126 whole entry, looked up): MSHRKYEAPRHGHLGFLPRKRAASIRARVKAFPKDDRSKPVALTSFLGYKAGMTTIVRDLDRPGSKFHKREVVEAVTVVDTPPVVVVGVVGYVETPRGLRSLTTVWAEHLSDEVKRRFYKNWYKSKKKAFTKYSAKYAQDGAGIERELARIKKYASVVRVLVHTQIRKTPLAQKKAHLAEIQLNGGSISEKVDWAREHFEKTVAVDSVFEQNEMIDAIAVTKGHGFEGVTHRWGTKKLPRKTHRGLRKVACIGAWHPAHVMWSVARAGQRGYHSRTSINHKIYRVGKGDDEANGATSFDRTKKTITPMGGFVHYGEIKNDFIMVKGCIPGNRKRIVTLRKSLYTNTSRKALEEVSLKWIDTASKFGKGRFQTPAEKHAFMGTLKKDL

B1: Stm1 (suppressor of target of Myb protein 1) (natural protein)
chain: MSNPFDLLGNDVEDADVVVLPPKEIVKSNTSSKKADVPPPSADPSKARKNRPRPSGNEGAIRDKTAGRRNNRSKDVTDSATTKKSNTRRATDRHSRTGKTDTKKKVNQGWGDDKKELSAEKEAQADAAAEIAEDAAEAEDAGKPKTAQLSLQDYLNQQANNQFNKVPEAKKVELDAERIETAEKEAYVPATKVKNVKSKQLKTKEYLEFDATFVESNTRKNFGDRNNNSRNNFNNRRGGRGARKGNNTANATNSANTVQKNRNIDVSNLPSLA
Turning to B1, the fold accumulation in the 80S fraction, without CHX against CHX-treated is 3 fold.
